B1: Hairpin Ribozyme (parent)
chain: GUCCUCUUUCACGUGCGCGUGAAAGAGAGAAGUGAACCAGAGAAACACACGUUGUGGUAUAUUACCUGGUA

Variants of: B1
Assay: self-cleavage, relative activity (ratio to wild type); higher = more cleavage; co-transcriptional

Variant | self-cleavage
GUCCUCUUUCAGGUGCGCGUGGAAGAGAGAAGUGAACCAGAGAAACACACGUUGUGGUAUAUUACCUGGUA [C12G A22G] | 0.739
GUCCUCUUUCACGUGCGCGGGAAAGAGAGAAGUGAACCAGAGAAACACACGUUGUGGUAUAUUACCUGGGA [U20G U70G] | 0.994
GUCCUCUUUCACGUGCGCGUGAAAGAGAGAAGUGAACCAGAGAAACAAACGAUGUGGUAUAUUACCUGGUA [C48A U52A] | 0.233
GUCCUCUUUCACGUGCGCGUGAAAGAGAGAAGUCAACCAGAGAAACACACGUUGUGGUAUAUUACCUGUUA [G34C G69U] | 0.729
GUCCUCUUUCACGUGCGCGGGAAAGAGAGAAGUGAACCAGAGAAACCCACGUUGUGGUAUAUUACCUGGUA [U20G A47C] | 0.299
GUCCUCUUUCACGUGCGCGUGAAAGAGAGAAGUGAACCAGAGAAACACACGUUGCGGUAUAUUUCCUGGUA [U55C A64U] | 0.154
GUCCUCUUUCACGUGCGCGUGAAAGAGAGAAGAGAACCAGAGACACACACGUUGUGGUAUAUUACCUGGUA [U33A A44C] | 0.205
GUCCUCUUUCACGUGCGCGUGAAAGAGAGAAGUGAACCAGAGGAACUCACGUUGUGGUAUAUUACCUGGUA [A43G A47U] | 0.131
GUCCACUUUCACGUGCGCGUGAAAGAGAGAAGUUAACCAGAGAAACACACGUUGUGGUAUAUUACCUGGUA [U5A G34U] | 1.07
GUCCUCUUUCACGUUCGCGUGAAAGAGAGAAGUGAACCAGAGAAACACACGUUGUGGUAUAUUAACUGGUA [G15U C65A] | 1.15
GUCAUCUUUCACGUGCGCGUGAAAGAGAGAAGUGAACCAGCGAAACACACGUUGUGGUAUAUUACCUGGUA [C4A A41C] | 0.322
GUCAUCUUUCACGUGCGCGUGAAAGAGAGAAGCGAACCAGAGAAACACACGUUGUGGUAUAUUACCUGGUA [C4A U33C] | 0.132
GUCCUCUUUCACGUGCGCGUGAAAGAGAGAAGUAAACCAGAGAAACACACGUUGUGGUAUAUUACCAGGUA [G34A U67A] | 0.194
GUCCUCUUUCACGUGCCCGUGAAAGAGAGAAGUGAACCAGAUAAACACACGUUGUGGUAUAUUACCUGGUA [G17C G42U] | 0.134
GUCCUCUUUCUCGUGCGCGUGAAAGAGAGAAGUGAACCAGAGAAACACACGUUAUGGUAUAUUACCUGGUA [A11U G54A] | 0.538
GUCCUCUUUCACGUGCGCGUGAAGGAGAGAAGUGAACCAGAGAAACACAGGUUGUGGUAUAUUACCUGGUA [A24G C50G] | 0.136
GUCCUCUUUCACGUGCGAGUGAAAGAGAGAAGUGAACCAGAGAAACACACCUUGUGGUAUAUUACCUGGUA [C18A G51C] | 0.896
GUUCUCUUUCACAUGCGCGUGAAAGAGAGAAGUGAACCAGAGAAACACACGUUGUGGUAUAUUACCUGGUA [C3U G13A] | 0.522
GUCCUCUUUCACGUGCGCGUGAAAGAGAGAAGUGAAACAGAAAAACACACGUUGUGGUAUAUUACCUGGUA [C37A G42A] | 0.124
GUCCUCUUUAACGUGCGCGUGACAGAGAGAAGUGAACCAGAGAAACACACGUUGUGGUAUAUUACCUGGUA [C10A A23C] | 0.657
GUCCUCUUUCACGUGCGCGUGAAAGAGAGAAGUGAACCACAGAAACACACGUUGUGGUAUAUUACCUGGUC [G40C A71C] | 0.401
GUCCUCUUUCACGUGCGCGUGAAAGAGGGAAGUGAACCAGAGAAUCACACGUUGUGGUAUAUUACCUGGUA [A28G A45U] | 0.201
GUCCUCUUUCACGUGCGCGUGAAAGAGAGAAGUGAACCAGAGAAAAACACGUUGUGGUAUAUUACCUGCUA [C46A G69C] | 0.0874
GUCCUCUUUCACGUGCGCGUGAAAGAGAGAAAUGAACCAGAGAAACACACGUUGUGGUAUAUUACCAGGUA [G32A U67A] | 0.114
GUCCUCUUUCACGUGCGCGUGAAAGAGAGAAGUGAACCAGAAAAACACACGUUGUGGGAUAUUACCUGGUA [G42A U58G] | 0.17
GUCCUCUUUCACGUGCGCGUGAAAGAGAGAAGUGAACCAGAGAAACAUACGUUGUGGUAUAUUGCCUGGUA [C48U A64G] | 0.0861

Variant | self-cleavage
GUCCUCUUUCACGUGCGGGUGAAAGAGAGAAGUGAACCAGAGGAACACACGUUGUGGUAUAUUACCUGGUA [C18G A43G] | 0.0801
GUCCUUUUUCACGUGCGCGUGAAAGAGAGAAGUGAACCAGAGAAACACGCGUUGUGGUAUAUUACCUGGUA [C6U A49G] | 0.571
GUCCUCUUGCACGUGCGCGUGGAAGAGAGAAGUGAACCAGAGAAACACACGUUGUGGUAUAUUACCUGGUA [U9G A22G] | 0.79
GUCCUCUUUCACGUGCGCGUGAAAGAGAGAAGCGAACCAGAGAAACCCACGUUGUGGUAUAUUACCUGGUA [U33C A47C] | 0.106
GUCCUCUUUCACGUGCGCGUGAAAGAGAGAAGUGCACCAGAGAAACACACGUUGUGGAAUAUUACCUGGUA [A35C U58A] | 0.841
GUCCUCUUUCAAGUGCGCGUGAAAGAGAGAAGUGAACCAGAGAAACACACGUUGGGGUAUAUUACCUGGUA [C12A U55G] | 0.406
UUCCUCAUUCACGUGCGCGUGAAAGAGAGAAGUGAACCAGAGAAACACACGUUGUGGUAUAUUACCUGGUA [G1U U7A] | 0.131
GUCCUCUUUCACGUGCGCGUGAAAGAGAGAAGUGAACCAGAGAAAGACACGUUGUGGUAUAUUACCUGGUU [C46G A71U] | 0.211
GUCCUCUUUCACGUGCGAGUGAAAGAGAGAAGUGAACCAGAGAAACACACGUUGUGGAAUAUUACCUGGUA [C18A U58A] | 0.577
GUCCUCUUUCACGUGCGCGUGGAAGGGAGAAGUGAACCAGAGAAACACACGUUGUGGUAUAUUACCUGGUA [A22G A26G] | 1.09
GUCCUCUUUCACGUGCGCGUGAAAGAGAGAAGUGAACCAGAGAAACACACGUUGUGGUAUAAAACCUGGUA [U62A U63A] | 0.12
GUCCUCUUUCAAGUGCGCGUGAAAGAGAGAAGUGAACCAGAGAAAAACACGUUGUGGUAUAUUACCUGGUA [C12A C46A] | 0.202
GUCCUCUUUCACGUGCGCGUGAAAGUGAGAAGUGAACCAGAGAAUCACACGUUGUGGUAUAUUACCUGGUA [A26U A45U] | 0.245
GUCCUCUUUCACGUGCGCGUGAAAGAGAGAAGUGAACCAGAGAAACACACCUUAUGGUAUAUUACCUGGUA [G51C G54A] | 0.136
GUCCUCUUUCACGGGCGCGUGAAAGAGAGAAGUGAACCAGAGAAACAUACGUUGUGGUAUAUUACCUGGUA [U14G C48U] | 0.0482
GUCCUCUUUCACGUGCGUGUGAAAGAGAGAAGUGACCCAGAGAAACACACGUUGUGGUAUAUUACCUGGUA [C18U A36C] | 0.65
GUCCUCUUGCACGUGCGCGUGAAAGAGAGAAGUGAACCACAGAAACACACGUUGUGGUAUAUUACCUGGUA [U9G G40C] | 0.104
GUCCUCUUUCACGUGCGCGUGUAAGAGAGAAGUGAACCAGAGAAGCACACGUUGUGGUAUAUUACCUGGUA [A22U A45G] | 0.225
GUCCUCUUUCACGUGCGCGUGAAAGAGGGAAGUGAACCAGAGAUACACACGUUGUGGUAUAUUACCUGGUA [A28G A44U] | 0.142
GUCCUCUUUCACGGGCGCGUGAAAGAGAGAAGUGAACCAGAGCAACACACGUUGUGGUAUAUUACCUGGUA [U14G A43C] | 0.0921
CUCCUCUUUUACGUGCGCGUGAAAGAGAGAAGUGAACCAGAGAAACACACGUUGUGGUAUAUUACCUGGUA [G1C C10U] | 0.241
GUCCUCUUUCUCGUGCGCGUGAAAGAGAGAAGUGAACCAGAGAAACACACGUUGUGGUAUAUUACCUGGUA [A11U] | 0.831
GUCCUCGUUCACGUGCGCGUGAAAGAGAGAAGUGAACCAGAGAAACACACGUUGUGGUAUAUUACCUUGUA [U7G G68U] | 0.269
GUCCUCUUUCACGUGCGCGUGAAAGAGAGAAGUGAACCAGAGAAACAGACGUUGUGGUAUGUUACCUGGUA [C48G A61G] | 0.131
GUCCGCUUUCACGUGCGCGUGAAAGAGAGAAGUGUACCAGAGAAACACACGUUGUGGUAUAUUACCUGGUA [U5G A35U] | 0.156
GUCCUCUUUCACGUGCGCGUGAAAGAAAGAAGUGAACCAGAGAAACACACGUUGUGGUAUAUUACCUUGUA [G27A G68U] | 0.184

Variant | self-cleavage
AUCGUCUUUCACGUGCGCGUGAAAGAGAGAAGUGAACCAGAGAAACACACGUUGUGGUAUAUUACCUGGUA [G1A C4G] | 0.149
GUCCUCUUUCACGUGCGCGUGAAAGCGAGAAGUGAACCAGAGAAACACAUGUUGUGGUAUAUUACCUGGUA [A26C C50U] | 0.306
GUCCUCUUUCACGUGCGCGUGAAAGAGAGAAGUGAACCAGAGAAAGAGACGUUGUGGUAUAUUACCUGGUA [C46G C48G] | 0.0704
GUCCUCUUUCACGUGCGCGUGAAAGAGAGAAGUGAACCAGAGAAACACACGUCGUGGUAUAUUACCUGGUC [U53C A71C] | 1.26
GUCCUCUUUCACGUGCGCGUGAAAGAGAGAAGUGAACCAGAGAAACACACGUUGUGGUGUAUUACCUGUUA [A59G G69U] | 0.15
GUCCUCUUUCACGUGCGCGUGAAAGAGAGAAGUGAACCAGAGAAACACACGGUGUGGUAUCUUACCUGGUA [U52G A61C] | 0.147
GUCCUCUUUCCCGUGCGCGUGAAAGAGAGAAGUGAACCAGAGUAACACACGUUGUGGUAUAUUACCUGGUA [A11C A43U] | 0.163
GUCCUCUUUCACGUGCGCGUGAAAGAGAGAAGUGAACCAGAGAAACACACGUUGUGGAAUAUAACCUGGUA [U58A U63A] | 0.14
GUCCUCUUUCACAUGCGCGUGAAAGAGAGAAGCGAACCAGAGAAACACACGUUGUGGUAUAUUACCUGGUA [G13A U33C] | 0.139
GUCCUCUUUCACGUGCGAGUGAAAGAGAGAAGUGAACCAGAGAAACACACGUUGGGGUAUAUUACCUGGUA [C18A U55G] | 0.296
GUCCUCUUUCACGUGCGAGUGAAAGAGAGAAGUGAACCAGAGAAACACACGUUGAGGUAUAUUACCUGGUA [C18A U55A] | 0.364
GUCCUCUUUCACGUGCGCGUGAAAGAGAGAAAUGAACCAGAGAAACACACGUUCUGGUAUAUUACCUGGUA [G32A G54C] | 0.117
GUUCUCUUUCACGUGCGCGUGAAAGAGAGAAGUGAACCAGAGAAACAAACGUUGUGGUAUAUUACCUGGUA [C3U C48A] | 0.167
GUCCUCUUUCACGUGCGCGUGAAAGAUAGAAGUGAACCAGAGAACCACACGUUGUGGUAUAUUACCUGGUA [G27U A45C] | 0.0886
GUCCUCUUUCACGUGCGCGUGACAGGGAGAAGUGAACCAGAGAAACACACGUUGUGGUAUAUUACCUGGUA [A23C A26G] | 1.01
GUCCUCAUUCACGUGCGCGUGAAAGAGAGAAGUGAACCAGAGAAACACACGUUGUGGUAUAUCACCUGGUA [U7A U63C] | 0.102
GUCCUCUUUCACGUGCGCGUUAAAGAGAGAAGUGAACCAGGGAAACACACGUUGUGGUAUAUUACCUGGUA [G21U A41G] | 0.772
GUCCUCUUUCACGUGCGCGUGAAUGAGAGAAGUGAACCAGAGAAACGCACGUUGUGGUAUAUUACCUGGUA [A24U A47G] | 0.164
GUCCUCGUUCACGUGCGCGUGAAAGAGGGAAGUGAACCAGAGAAACACACGUUGUGGUAUAUUACCUGGUA [U7G A28G] | 1.06
GUCCUCUUUCACGUGCGCGAGAAAGAGAGAAGUGAACCAGAGAAACACACGUUGUUGUAUAUUACCUGGUA [U20A G56U] | 0.114
GUCCUCAUUCACGUGCGCGUCAAAGAGAGAAGUGAACCAGAGAAACACACGUUGUGGUAUAUUACCUGGUA [U7A G21C] | 0.664
GUUCUCUUUCACGUGCGCUUGAAAGAGAGAAGUGAACCAGAGAAACACACGUUGUGGUAUAUUACCUGGUA [C3U G19U] | 0.502
GGCCUCUUUCACGUGCGCGUGAAAGAGAGAAGUGAACCAGACAAACACACGUUGUGGUAUAUUACCUGGUA [U2G G42C] | 0.252
GUCCUCUUUCACGUGCGCGUGAAAGAGAGAAGUCAACCAGCGAAACACACGUUGUGGUAUAUUACCUGGUA [G34C A41C] | 1.47

— the RNAGym collection of RNA variant scans (doi:10.7554/elife.80360)
